Measured values as given in patent publication US20220153847A1 (Chugai, published 2022).

T1: HLA-DQ2.2 on Ba/F3 cells (human, UniProt P01909 24-216, limits assumed)
T1 construct: whole, on cells; also called Ba/F3-HLA-DQ2.2
T1 MHC II alpha: not shown
T1 MHC II beta: not shown

T2: HLA-DQ6.3 on Ba/F3 cells (human, UniProt P01920 33-230, limits assumed)
T2 construct: whole, on cells; also called Ba/F3-HLA-DQ6.3
T2 MHC II alpha: not shown
T2 MHC II beta: not shown

B1: DQN0429cc//IC17 (bispecific antibody, human IgG1, kappa)
heavy 1: QEQLVESGGGLVQPEGSLTLTCTASGFSFSSSYYMCWVRQAPGKGLEWIGCIYTGSGSTDYATWVNGRFTISKTSSTTVTLQMTSLTVADTATYFCARDIGIDYNFWGPGTLVTVSSASTKGPSVFPLAPSSKSTSGGTAALGCLVKDYFPEPVTVSWNSGALTSGVHTFPAVLQSSGLYSLSSVVTVPSSSLGTQTYICNVNHKPSNTKVDKRVEPKSCDKTHTCPPCPAPELRRGPSVFLFPPKPKDTLMISRTPEVTCVVVDVSHEDPEVKFNWYVDGVEVHNAKTKPREEQYNSTYRVVSVLTVLHQDWLNGKEYKCKVSNKALPAPIEKTISKAKGQPREPQVYTLPPSREEMTKNQVSLTCLVKGFYPSDIAVEWESNGQPENNYKTTPPYLDSDGSFFLYSKLTVDKSRWQQGNVFSCSVMHEALHNHYTQESLSLSP
light 1: AFELTQTPSFVEARVGGTVTIKCQATQSISSYLNWYQQKPGQPPKLLIYYASTLASGVPSRFKGSGSGTEFTLTISGVECADAATYYCHYGISYVSFGGGTKVEIKRTVAAPSVFIFPPSDEQLKSGTASVVCLLNNFYPREAKVQWKVDNALQSGNSQESVTEQDSKDCTYSLSSTLTLSKADYEKHKVYACEVTHQGLSSPVTKSFNRGEC
heavy 2: QVQLQQSGPQLVRPGASVKISCKASGYSFTSYWMHWVNQRPGQGLEWIGMIDPSYSETRLNQKFKDKATLTVDKSSSTAYMQLSSPTSEDSAVYYCALYGNYFDYWGQGTTLTVSSASTKGPSVFPLAPSSKSTSGGTAALGCLVKDYFPEPVTVSWNSGALTSGVHTFPAVLQSSGLYSLSSVVTVPSSSLGTQTYICNVNHKPSNTKVDKRVEPKSCDKTHTCPPCPAPELRRGPSVFLFPPKPKDTLMISRTPEVTCVVVDVSHEDPEVKFNWYVDGVEVHNAKTKPREEQYNSTYRVVSVLTVLHQDWLNGKEYKCKVSNKALPAPIEKTISKAKGQPREPQVYTLPPSRKEMTKNQVSLTCLVKGFYPSDIAVEWESNGQPENNYKTTPPYLDSDGSFFLYSKLTVDKSRWQQGNVFSCSVMHEALHNHYTQKSLSLSP
light 2: DIQMTQSSSSFSVSLGDRVTITCKASEDIYNRLAWYQQKPGNAPRLLISGATSLETGVPSRFSGSGSGKDYTLSITSLQTEDVATYYCQQYWSTPYTFGGGTKLEVKRTVAAPSVFIFPPSDEQLKSGTASVVCLLNNFYPREAKVQWKVDNALQSGNSQESVTEQDSKDSTYSLSSTLTLSKADYEKHKVYACEVTHQGLSSPVTKSFNRGEC
B2: IC17 (antibody, V domains shown)
VH: QVQLQQSGPQLVRPGASVKISCKASGYSFTSYWMHWVNQRPGQGLEWIGMIDPSYSETRLNQKFKDKATLTVDKSSSTAYMQLSSPTSEDSAVYYCALYGNYFDYWGQGTTLTVSS
VL: DIQMTQSSSSFSVSLGDRVTITCKASEDIYNRLAWYQQKPGNAPRLLISGATSLETGVPSRFSGSGSGKDYTLSITSLQTEDVATYYCQQYWSTPYTFGGGTKLEVK
notes: also called IC17 bivalent; TC17

Assays:
HLA-DQ2.2 on Ba/F3 cells = target: T1, HLA-DQ2.2 on Ba/F3 cells; experiment: FACS, Ba/F3 cells; IC17=0%, DQN0139bb//IC17=100%;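 note: flow cytometry binding of anti-HLA-DQ antibodies at 5 µg/mL, incubated 30 min at room temperature with Ba/F3 lines presenting HLA-DQ/peptide complexes; antibody tested at 5 microgram/mL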
Description: (§1) The binding of anti-HLA-DQ antibodies to Ba/F3-HLA-DQ2.5, Ba/F3-HLA-DQ2.2, Ba/F3-HLA-DQ7.5, Ba/F3-HLA-DQ8, Ba/F3-HLA-DQ5.1, Ba/F3-HLA-DQ6.3, Ba/F3-HLA-DQ7.3, Ba/F3-HLA-DR, Ba/F3-HLA-DP, Ba/F3-HLA-DQ2.5/CLIP, Ba/F3-HLA-DQ2.5/HBV, Ba/F3-HLA-DQ2.5/Salmonella, Ba/F3-HLA-DQ2.5/TPO, Ba/F3-HLA-DQ2.5/M. bovis, Ba/F3-HLA-DQ2.5/alpha 1 gliadin, Ba/F3-HLA-DQ2.5/alpha 2 gliadin, Ba/F3-HLA-DQ2.5/gamma 1 gliadin, Ba/F3-HLA-DQ2.5/gamma 2 gliadin, Ba/F3-HLA-DQ2.5/omega 1 gliadin, Ba/F3-HLA-DQ2.5/omega 2 gliadin, Ba/F3-HLA-DQ2.5/BC hordein, Ba/F3-HLA-DQ2.5/alpha 3 gliadin, Ba/F3-HLA-DQ2.5/alpha 1b gliadin, Ba/F3-HLA-DQ2.5/gamma 4b gliadin, Ba/F3-HLA-DQ2.5/avenin 1, Ba/F3-HLA-DQ2.5/avenin 2, Ba/F3-HLA-DQ2.5/avenin 3, Ba/F3-HLA-DQ2.5/hordein 1, Ba/F3-HLA-DQ2.5/hordein 2, Ba/F3-HLA-DQ2.5/secalin 1, Ba/F3-HLA-DQ2.5/secalin 2, Ba/F3-HLA-DQ2.5/14mer 1, Ba/F3-HLA-DQ2.5/33mer gliadin, Ba/F3-HLA-DQ2.5/26mer gliadin, was tested. 5 microgram/mL of each of the anti-HLA-DQ antibodies was incubated with each cell line for 30 minutes at room temperature and washed with FACS buffer (2% FBS, 2 mM EDTA in PBS).

[1] = target: T3, HLA-DQ2.5/alpha 2 gliadin peptide complex on Ba/F3 cells (human); experiment: FACS, Ba/F3 cells; IC17=0%, DQN0139bb//IC17=100%;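 note: flow cytometry binding of anti-HLA-DQ antibodies at 5 µg/mL, incubated 30 min at room temperature with Ba/F3 lines presenting HLA-DQ/peptide complexes; antibody tested at 5 microgram/mL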
T3 construct: whole, on cells; also called Ba/F3-HLA-DQ2.5/alpha 2 gliadin; HLA-DQ2.5/a2 gliadin
Description: as §1

[2] = target: T4, HLA-DQ2.5/secalin 1 peptide complex on Ba/F3 cells (human); experiment: FACS, Ba/F3 cells; IC17=0%, DQN0139bb//IC17=100%;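 note: flow cytometry binding of anti-HLA-DQ antibodies at 5 µg/mL, incubated 30 min at room temperature with Ba/F3 lines presenting HLA-DQ/peptide complexes; antibody tested at 5 microgram/mL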
T4 construct: whole, on cells; also called Ba/F3-HLA-DQ2.5/secalin 1
Description: as §1

[3] = target: T5, HLA-DQ2.5/gamma 2 gliadin peptide complex on Ba/F3 cells (human); experiment: FACS, Ba/F3 cells; IC17=0%, DQN0139bb//IC17=100%;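 note: flow cytometry binding of anti-HLA-DQ antibodies at 5 µg/mL, incubated 30 min at room temperature with Ba/F3 lines presenting HLA-DQ/peptide complexes; antibody tested at 5 microgram/mL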
T5 construct: whole, on cells; also called Ba/F3-HLA-DQ2.5/gamma 2 gliadin; HLA-DQ2.5/g2 gliadin
Description: as §1

[4] = target: T6, HLA-DQ2.5/BC hordein peptide complex on Ba/F3 cells (human); experiment: FACS, Ba/F3 cells; IC17=0%, DQN0139bb//IC17=100%
T6 construct: whole, on cells; also called Ba/F3-HLA-DQ2.5/BC hordein
Description: as §1

[5] = target: T7, HLA-DQ2.5/14mer 1 peptide complex on Ba/F3 cells (human); experiment: FACS, Ba/F3 cells; IC17=0%, DQN0139bb//IC17=100%
T7 construct: whole, on cells; also called Ba/F3-HLA-DQ2.5/14mer 1
Description: as §1

[6] = target: T8, HLA-DQ2.5/hordein 2 peptide complex on Ba/F3 cells (human); experiment: FACS, Ba/F3 cells; IC17=0%, DQN0139bb//IC17=100%
T8 construct: whole, on cells; also called Ba/F3-HLA-DQ2.5/hordein 2
Description: as §1

[7] = target: T9, HLA-DQ2.5/gamma 1 gliadin peptide complex on Ba/F3 cells (human); experiment: FACS, Ba/F3 cells; IC17=0%, DQN0139bb//IC17=100%
T9 construct: whole, on cells; also called Ba/F3-HLA-DQ2.5/gamma 1 gliadin; HLA-DQ2.5/g1 gliadin
Description: as §1

[8] = target: T10, HLA-DQ2.5/hordein 1 peptide complex on Ba/F3 cells (human); experiment: FACS, Ba/F3 cells; IC17=0%, DQN0139bb//IC17=100%
T10 construct: whole, on cells; also called Ba/F3-HLA-DQ2.5/hordein 1
Description: as §1

[9] = target: T11, HLA-DQ2.5/omega 2 gliadin peptide complex on Ba/F3 cells (human); experiment: FACS, Ba/F3 cells; IC17=0%, DQN0139bb//IC17=100%
T11 construct: whole, on cells; also called Ba/F3-HLA-DQ2.5/omega 2 gliadin; HLA-DQ2.5/w2 gliadin
Description: as §1

[10] = target: T12, HLA-DQ2.5/33mer gliadin peptide complex on Ba/F3 cells (human); experiment: FACS, Ba/F3 cells; IC17=0%, DQN0139bb//IC17=100%
T12 construct: whole, on cells; also called Ba/F3-HLA-DQ2.5/33mer gliadin
Description: as §1

[11] = target: T13, HLA-DQ2.5/alpha 1b gliadin peptide complex on Ba/F3 cells (human); experiment: FACS, Ba/F3 cells; IC17=0%, DQN0139bb//IC17=100%
T13 construct: whole, on cells; also called Ba/F3-HLA-DQ2.5/alpha 1b gliadin; HLA-DQ2.5/a1b gliadin
Description: as §1

[12] = target: T14, HLA-DQ2.5/alpha 3 gliadin peptide complex on Ba/F3 cells (human); experiment: FACS, Ba/F3 cells; IC17=0%, DQN0139bb//IC17=100%
T14 construct: whole, on cells; also called Ba/F3-HLA-DQ2.5/alpha 3 gliadin; HLA-DQ2.5/a3 gliadin
Description: as §1

[13] = target: T15, HLA-DQ2.5/26mer gliadin peptide complex on Ba/F3 cells (human); experiment: FACS, Ba/F3 cells; IC17=0%, DQN0139bb//IC17=100%
T15 construct: whole, on cells; also called Ba/F3-HLA-DQ2.5/26mer gliadin
Description: as §1

[14] = target: T16, HLA-DQ2.5/gamma 4b gliadin peptide complex on Ba/F3 cells (human); experiment: FACS, Ba/F3 cells; IC17=0%, DQN0139bb//IC17=100%
T16 construct: whole, on cells; also called Ba/F3-HLA-DQ2.5/gamma 4b gliadin; HLA-DQ2.5/g4b gliadin
Description: as §1

[15] = target: T17, HLA-DQ2.5/omega 1 gliadin peptide complex on Ba/F3 cells (human); experiment: FACS, Ba/F3 cells; IC17=0%, DQN0139bb//IC17=100%
T17 construct: whole, on cells; also called Ba/F3-HLA-DQ2.5/omega 1 gliadin; HLA-DQ2.5/w1 gliadin
Description: as §1

[16] = target: T18, HLA-DQ2.5/alpha 1 gliadin peptide complex on Ba/F3 cells (human); experiment: FACS, Ba/F3 cells; IC17=0%, DQN0139bb//IC17=100%
T18 construct: whole, on cells; also called Ba/F3-HLA-DQ2.5/alpha 1 gliadin; HLA-DQ2.5/a1 gliadin
Description: as §1

[17] = target: T19, HLA-DQ2.5/secalin 2 peptide complex on Ba/F3 cells (human); experiment: FACS, Ba/F3 cells; IC17=0%, DQN0139bb//IC17=100%
T19 construct: whole, on cells; also called Ba/F3-HLA-DQ2.5/secalin 2
Description: as §1

HLA-DQ6.3 on Ba/F3 cells = target: T2, HLA-DQ6.3 on Ba/F3 cells; experiment: FACS on Ba/F3-HLA-DQ6.3 cells, single antibody concentration, goat F(ab')2 anti-human IgG-PE

| Binder | % MFI (HLA-DQ2.2 on Ba/F3 cells) [%] | % MFI [1] [%] | % MFI [2] [%] | % MFI [3] [%] | % MFI [4] [%] | % MFI [5] [%] | % MFI [6] [%] | % MFI [7] [%] | % MFI [8] [%] | % MFI [9] [%] | % MFI [10] [%] | % MFI [11] [%] | % MFI [12] [%] | % MFI [13] [%] | % MFI [14] [%] | % MFI [15] [%] | % MFI [16] [%] | % MFI [17] [%] | binding result (HLA-DQ6.3 on Ba/F3 cells) |
| --- | --- | --- | --- | --- | --- | --- | --- | --- | --- | --- | --- | --- | --- | --- | --- | --- | --- | --- | --- |
| B1 | 0.3 | 55.5 | 10.9 | 0.8 | 14.9 | 16.3 | 93.2 | 12.6 | 1.5 | 45.4 | 67.1 | 9.2 | 0.8 | 26.2 | 3.2 | 11.5 | 3.5 | 30.6 | – |
| B2 | – | – | – | – | – | – | – | – | – | – | – | – | – | – | – | – | – | – | no binding (tested: 5 microgram/mL) |
